Biological target: T1, GABAAR α1 subunit, full length, expressed in HEK293 cells (UniProt P62812 28-455)
T1 sequence (looked up): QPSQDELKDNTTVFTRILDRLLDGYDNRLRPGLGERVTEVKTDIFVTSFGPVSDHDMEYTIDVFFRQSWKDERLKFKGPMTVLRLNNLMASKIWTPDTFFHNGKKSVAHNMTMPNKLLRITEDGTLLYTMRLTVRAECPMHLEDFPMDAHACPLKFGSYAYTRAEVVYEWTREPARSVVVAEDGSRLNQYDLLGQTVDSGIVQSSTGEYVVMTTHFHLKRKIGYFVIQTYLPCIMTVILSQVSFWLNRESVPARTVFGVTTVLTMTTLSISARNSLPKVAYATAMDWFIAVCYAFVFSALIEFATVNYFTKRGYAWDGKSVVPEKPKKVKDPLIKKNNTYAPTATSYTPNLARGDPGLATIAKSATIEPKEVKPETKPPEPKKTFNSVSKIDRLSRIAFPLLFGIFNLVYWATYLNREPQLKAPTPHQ
Assay: cell-based or functional assay

B1: Endogenous Usp14 protein derived from mouse brain lysates (enzyme, mouse (endogenous in brain), UniProt Q9JMA1 1-493, looked up)
chain: MPLYSVTVKWGKEKFEGVELNTDEPPMVFKAQLFALTGVQPARQKVMVKGGTLKDDDWGNIKMKNGMTVLMMGSADALPEEPSAKTVFVEDMTEEQLATAMELPCGLTNLGNTCYMNATVQCIRSVPELKDALKRYAGALRASGEMASAQYITAALRDLFDSMDKTSSSIPPIILLQFLHMAFPQFAEKGEQGQYLQQDANECWIQMMRVLQQKLEAIEDDSGRETDSSSAPAVTPSKKKSLIDQYFGVEFETTMKCTESEEEEVTKGKENQLQLSCFINQEVKYLFTGLKLRLQEEITKQSPTLQRNALYIKSSKISRLPAYLTIQMVRFFYKEKESVNAKVLKDVKFPLMLDVYELCTPELQEKMVSFRSKFKDLEDKKVNQQPNANDKNSPPKEIKYEPFSFADDIGSNNCGYYDLQAVLTHQGRSSSSGHYVSWVRRKQDEWIKFDDDKVSIVTPEDILRLSGGGDWHIAYVLLYGPRRVEIMEEESEQ
Q: For B1, which “GABAAR α1-GFP surface membrane levels (surface biotinylation, HEK293 cells expressing GABAAR α1-GFP and GABAAR β3) with the competing peptide mRFP-GABAAR α1(334–346) against mRFP” value is on record?
A: The value was 2.5 fold.
